# B1: C2E3 anti-ROR1 IgG antibody (antibody, V domains shown)
# VH: EVQLLESGGGLVQPGGSLRLSCAASGFTFSNYAMSWVRQAPGKGLEWVSSISHNSGSTYYADSVKGRFTISRDNSKNTLYLQMNSLRAEDTAVYYCAKFISARKSLGRSYSNGMDVWGQGTLVTVSS
# VL: QSVLTQPPSASGTPGQRVTISCTGSSSNIGSNDVTWYQQLPGTAPKLLIYADSKRPSGVPDRFSGSKSGTSASLAISGLRSEDEADYYCGTWDYSLSGYVFGGGTKLTVLG
# Experiments:
# [1] = target: T1, human ROR1 expressed on the cell surface (human, UniProt Q01973 30-937); experiment: flow cytometry on MKN-28 cells (gastric cancer), C2E3 IgG at 10 µg/mL, MFI of anti-ROR1 / MFI of 2nd Ab
# T1 construct: whole, on cells; On JeKo-1 and Mino cells and other cancer cell lines (endogenous) and on transfected CHO and MC38 cells; also called cell surface-expressed ROR1; CHO-human ROR1
# T1 sequence (Q01973 30-937): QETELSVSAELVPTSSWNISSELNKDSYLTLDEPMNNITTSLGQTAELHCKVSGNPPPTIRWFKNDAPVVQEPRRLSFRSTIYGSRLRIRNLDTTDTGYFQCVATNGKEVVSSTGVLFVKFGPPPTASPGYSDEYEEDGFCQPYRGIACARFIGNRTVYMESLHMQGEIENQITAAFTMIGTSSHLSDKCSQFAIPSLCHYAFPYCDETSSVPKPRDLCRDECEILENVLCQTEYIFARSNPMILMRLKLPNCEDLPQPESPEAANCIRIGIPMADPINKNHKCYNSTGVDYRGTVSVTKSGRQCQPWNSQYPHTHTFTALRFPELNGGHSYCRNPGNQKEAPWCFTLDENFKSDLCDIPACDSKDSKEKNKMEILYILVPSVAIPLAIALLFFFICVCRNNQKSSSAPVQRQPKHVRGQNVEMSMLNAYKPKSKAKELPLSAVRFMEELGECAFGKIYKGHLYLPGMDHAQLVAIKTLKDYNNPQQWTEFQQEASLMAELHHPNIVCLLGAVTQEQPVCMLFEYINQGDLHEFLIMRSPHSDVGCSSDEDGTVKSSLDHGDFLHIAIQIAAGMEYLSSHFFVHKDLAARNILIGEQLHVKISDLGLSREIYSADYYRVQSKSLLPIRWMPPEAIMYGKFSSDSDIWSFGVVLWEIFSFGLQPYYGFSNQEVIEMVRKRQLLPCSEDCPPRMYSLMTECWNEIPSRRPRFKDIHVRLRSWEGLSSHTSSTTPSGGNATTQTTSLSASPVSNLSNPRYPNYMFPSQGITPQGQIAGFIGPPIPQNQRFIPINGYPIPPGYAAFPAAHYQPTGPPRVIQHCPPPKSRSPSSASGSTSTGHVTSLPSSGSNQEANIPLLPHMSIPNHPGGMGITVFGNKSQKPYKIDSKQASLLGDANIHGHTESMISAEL
# Method: (§1) For the cell lines, the binding to ROR1 was analyzed with FACS (FACSCalibur, BD Biosciences) by using the anti-ROR1 antibody of the present invention.
# (§2) Specifically, after disassociating each cell line and washing in PBS, the number of cells was counted and set as 2 ×10^5 cells/200 µl PBS, and then the clone C2E3 among ROR1 monoclonal antibodies prepared in Example 3 was treated in 10 µg/mL, and it was reacted at 4° C. for 1 hour. After reaction, cells were washed in PBS, and then the FITC-labeled constant region (Fc)-specific antibody (Goat anti-human IgG FITC conjugate, Fc specific, Sigma, F9512, concentration: 2.0 mg/ml) was suspended in 2 µl/1 ×10^5 cells/200 µl PBS, and it was reacted at 4° C. for 1 hour. After reaction, cells were washed in PBS, it was analyzed using a FACSCalibur device. The negative control group was treated only with the FITC-labeled constant region (Fc)-specific antibody. To compare the expression degrees of ROR1 among the cancer cell lines, the value of the result for the peak shift in the experimental group treated with the ROR1 monoclonal antibody (C2E3) of the present invention was divided by the result for the peak shift in the control group (Mean Fluorescence Intensity Ratio MFI Ratio: MFI of anti-ROR1/MFI of 2nd Ab).
# [2] = target: T2, recombinant ROR1-His (Sino Biological, 13968-H08H) (human, UniProt Q01973 30-406); experiment: BLI (Octet), ROR1-His loaded on biosensor, IgG in solution, 1:1 fitting
# T2 construct: extracellular domain; Bought; also called human ROR1 antigen; not shown: His tag
# T2 sequence (Q01973 30-406): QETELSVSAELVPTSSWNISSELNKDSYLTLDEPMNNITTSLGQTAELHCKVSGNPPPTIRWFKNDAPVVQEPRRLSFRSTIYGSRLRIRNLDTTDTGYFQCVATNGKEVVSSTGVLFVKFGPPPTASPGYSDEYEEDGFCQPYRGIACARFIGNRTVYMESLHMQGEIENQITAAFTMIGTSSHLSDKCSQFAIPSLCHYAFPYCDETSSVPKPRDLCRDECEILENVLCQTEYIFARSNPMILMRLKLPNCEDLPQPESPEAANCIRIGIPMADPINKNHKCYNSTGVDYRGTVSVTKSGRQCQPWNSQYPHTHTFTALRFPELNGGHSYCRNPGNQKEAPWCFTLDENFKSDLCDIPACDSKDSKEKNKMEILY
# Method: A 96 well black microplate (greiner bio one) in a biosensor tray case was installed, and 200 µl of 10×KB or D.W was put in 8 wells each. 8 sensors, Anti Penta His biosensors or AR2G biosensors (ForteBio, USA), were placed for 10 min for hydration. 600 µl of Analytic samples were diluted 2 folds or 3 folds to desired concentrations. It was diluted using 1×KB or 10×KB to reach a concentration of 30~0.021 nM. For antigen fixation, 1 µg/mL of a recombinant ROR1-His (Sino Biological, 13968-H08H) was diluted with 10×KB or Sodium Acetate pH5 buffer. For fixation, threshold was set to be 0.3 nmat the loading step. The experiment was performed for 3 min~10 min of association and for 20 min of dissociation. The prepared buffer was put into a new 96 well black microplate in accordance with octet program template in order. 10×KB or D.W 200 µl used as Baseline1 was put. 200 µl of the antigen ROR1-His protein (1 µg/mL) was loaded. 10×KB or D.W 200 µl used as Baseline2 was put. 200 µl of 10×KB buffer or 1×KB corresponding the diluted antibody in 30~0.021 nM, Reference blank was put into each well. The temperature of the experimental plate was fixed at 30° C. After placing all samples, the device was activated. After the experiment was finished, the result was uploaded on Octet Analysis 9.0 software, and then KD value was calculated using 1:1 fitting, and the result was described in the following Table 6. […]
# [3] = target: T1, human ROR1 expressed on the cell surface; experiment: flow cytometry on MDA-MB-231 cells (breast cancer), C2E3 IgG at 10 µg/mL, MFI of anti-ROR1 / MFI of 2nd Ab
# Method: as §1, §2
# [4] = target: T1, human ROR1 expressed on the cell surface; experiment: flow cytometry on Mino cells (MCL), C2E3 IgG at 10 µg/mL, MFI of anti-ROR1 / MFI of 2nd Ab
# Method: as §1, §2
# [5] = target: T1, human ROR1 expressed on the cell surface; experiment: flow cytometry on HCT116 cells (colon cancer), C2E3 IgG at 10 µg/mL, MFI of anti-ROR1 / MFI of 2nd Ab
# Method: as §1, §2
# [6] = target: T1, human ROR1 expressed on the cell surface; experiment: flow cytometry on NCI-N87 cells (gastric cancer), C2E3 IgG at 10 µg/mL, MFI of anti-ROR1 / MFI of 2nd Ab
# Method: as §1, §2
# [7] = target: T1, human ROR1 expressed on the cell surface; experiment: flow cytometry on HCC1143 cells (breast cancer), C2E3 IgG at 10 µg/mL, MFI of anti-ROR1 / MFI of 2nd Ab
# Method: as §1, §2
# [8] = target: T1, human ROR1 expressed on the cell surface; experiment: flow cytometry on SNU-1750 cells (gastric cancer), C2E3 IgG at 10 µg/mL, MFI of anti-ROR1 / MFI of 2nd Ab
# Method: as §1, §2
# [9] = target: T1, human ROR1 expressed on the cell surface; experiment: flow cytometry on DLD-1 cells (colon cancer), C2E3 IgG at 10 µg/mL, MFI of anti-ROR1 / MFI of 2nd Ab
# Method: as §1, §2
binder,measurement,setting,value
B1,Mean Fold Ratio,[1],4.9
same,Kd,[2],0.424 nM
same,koff,[2],0.00231 s⁻¹
same,Mean Fold Ratio,[3],8.8
same,Mean Fold Ratio,[4],7.2
same,Mean Fold Ratio,[5],18
same,Mean Fold Ratio,[6],11.8
same,Mean Fold Ratio,[7],3.2
same,Mean Fold Ratio,[8],3.9
same,Mean Fold Ratio,[9],17.6
